{
  "source": "paper PMC3886910",
  "about": "(PLoS Neglected Tropical Diseases, 2014)",
  "key": {"SjCP3842": {"target": "T1, SjCP3842 (Schistosoma japonicum, UniProt Q6PYV4)", "T1 construct": "gene CP3842", "test": "UV-visible differential spectral titration (Soret […] nm); also hemin-agarose pulldown and heme peroxidase binding assay"}, "[1]": {"target": "SjCP1084, recombinant (Schistosoma japonicum)", "test": "SDS-PAGE and western blot (oligomer bands)"}, "[2]": {"target": "SjCP1531, recombinant (Schistosoma japonicum)", "test": "SDS-PAGE and western blot (oligomer bands)"}, "[3]": {"target": "SjCP3842, recombinant (Schistosoma japonicum)", "test": "SEC"}, "[4]": {"target": "SjCP3842, recombinant (Schistosoma japonicum)", "test": "SDS-PAGE and western blot (oligomer bands)"}, "[5]": {"target": "native SjCP1084 (Schistosoma japonicum (endogenous in egg and adult worm extracts))", "test": "SDS-PAGE and immunoblot (oligomer bands)"}, "[6]": {"target": "native SjCP1531 (Schistosoma japonicum (endogenous in egg and adult worm extracts))", "test": "SDS-PAGE and immunoblot (oligomer bands)"}, "[7]": {"target": "native SjCP3842 (Schistosoma japonicum (endogenous in egg and adult worm extracts))", "test": "SDS-PAGE and immunoblot (oligomer bands)"}, "[8]": {"target": "native SjCP3842 (Schistosoma japonicum (endogenous in egg and adult worm extracts))", "test": "SDS-PAGE and immunoblot (oligomer bands)", "remark": "listed apart in the source"}},
  "note": "Like-named read-outs stand apart in the source and are kept apart here.",
  "data": [
    {"compound": "C=CC1=C(C)C2=Cc3c(C=C)c(C)c4[n]3[Fe][n]3c(c(C)c(CCC(=O)O)c3=CC3=NC(=C4)C(C)=C3CCC(=O)O)=CC1=N2", "note": "[heme]", "values": [
      {"measurement": "Kd", "setting": "SjCP3842", "result": 1610, "unit": "nM"}
    ]},
    {"compound": "SjCP1084, recombinant (natural protein)", "values": [
      {"measurement": "stoichiometry N", "setting": "[1]", "result": 4}
    ]},
    {"compound": "SjCP1531, recombinant (natural protein)", "values": [
      {"measurement": "stoichiometry N", "setting": "[2]", "result": 4}
    ]},
    {"compound": "SjCP3842, recombinant (natural protein)", "values": [
      {"measurement": "stoichiometry N", "setting": "[3]", "result": 4},
      {"measurement": "stoichiometry N", "setting": "[4]", "result": 4}
    ]},
    {"compound": "native SjCP1084 (natural protein)", "values": [
      {"measurement": "stoichiometry N", "setting": "[5]", "result": 4}
    ]},
    {"compound": "native SjCP1531 (natural protein)", "values": [
      {"measurement": "stoichiometry N", "setting": "[6]", "result": 4}
    ]},
    {"compound": "native SjCP3842 (natural protein)", "values": [
      {"measurement": "stoichiometry N", "setting": "[7]", "result": 4},
      {"measurement": "stoichiometry N", "setting": "[8]", "result": 2}
    ]}
  ]
}
